Among the data in PMC10823224 (2024) are Kd values, retold here.

The target of this assay is fusion-competent ectodomain of influenza virus A/PR8/34 (Ecto-PR8/34) hemagglutinin (influenza virus A/PR/8/34, UniProt P03452 18-528). As to the kind of experiment: BLI.
fusion-competent ectodomain of influenza virus A/PR8/34 (Ecto-PR8/34) hemagglutinin, sequence (P03452 18-528): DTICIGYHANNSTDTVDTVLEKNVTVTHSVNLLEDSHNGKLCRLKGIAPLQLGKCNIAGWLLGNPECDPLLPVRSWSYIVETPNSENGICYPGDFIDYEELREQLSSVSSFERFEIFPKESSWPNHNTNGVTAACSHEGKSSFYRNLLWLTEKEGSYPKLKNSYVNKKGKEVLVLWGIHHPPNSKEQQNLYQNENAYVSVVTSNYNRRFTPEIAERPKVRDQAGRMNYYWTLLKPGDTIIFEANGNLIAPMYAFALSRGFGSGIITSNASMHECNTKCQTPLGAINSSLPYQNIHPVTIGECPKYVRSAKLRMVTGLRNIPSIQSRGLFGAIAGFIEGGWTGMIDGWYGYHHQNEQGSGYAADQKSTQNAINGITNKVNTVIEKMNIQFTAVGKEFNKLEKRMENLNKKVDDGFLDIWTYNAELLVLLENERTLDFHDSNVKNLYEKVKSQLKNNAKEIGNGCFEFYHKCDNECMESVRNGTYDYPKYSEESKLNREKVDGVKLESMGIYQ

B1: anti-HA antibody C179 (antibody, V domains shown)
VH: EVKLVESGGGLVQPGGSLRLSCGTSGFTLTDDYMTWVRQPPGKALEWLGFIRDRANGYTTEYSASVKGRFTISRDNSQSIVYLQMNTLRVEDSATYYCARPKGYFPYAMDYWGQGTSVIVSS
VL: DIQMTQSPASQSASLGESVTITCLASQTIGTWLAWYQQKPGKSPQLLIYAATSLADGVPSRFSGSGSGTKFSFKISSLQAEDFVSYYCQQLYSTPWTFGGGTRLEIKR
As a reminder, the Kd is the constant that tells how readily two partners part at equilibrium. Molecule B1 showed a dissociation constant (Kd) of 18.4 nM.
